Data on eight substances can be found in PMC7505961.

Data set [1] deals with cGAS (human). As to the kind of experiment: EMSA. The conditions noted are these: 5 mM Mg2+, 20 mM Tris-HCl pH 7.6, 60 mM NaCl, 5 mM MgCl2, 10 ul, 30 min on ice, 80 nM (145/185) or 10 nM (2450/oligo) substrate, 1.5% agarose, 0.2x TBE. (A gel shift assay detects complexes by their altered migration in electrophoresis.)
The target of data set [2] is 185-nucleosome (185 bp dsDNA, Widom 601 extended by 20 bp on both ends, with recombinant histone octamer). Put plainly: native gel or EMSA; FAM-labelled nucleosome (0.8 pmol; oligonucleosomes 0.1 pmol) mixed with different amounts of cGAS in 20 mM Tris-HCl pH 7.6, 60 mM NaCl, 5 mM MgCl2, total volume 10 ul; on ice 30 min; 1.5% agarose gel, 0.2x TBE; Kd from percent bound nucleosome against cGAS concentration.

Data set [3] concerns the target Oligonucleosomes (2,450 bp dsDNA reconstituted with recombinant histone octamers). The description is as above.
Data set [4] concerns the target 145-nucleosome ("601" nucleosome core particle: 145 bp Widom 601 DNA with recombinant histone octamer). The data set is described as above.
Data set [5] concerns the target 185-nucleosome (185 bp dsDNA, Widom 601 extended by 20 bp on both ends, with recombinant histone octamer).
Data set [6] has as its target 145-nucleosome ("601" nucleosome core particle: 145 bp Widom 601 DNA with recombinant histone octamer).

In turn, 2,450-dsDNA showed a Kd in data set [1] of 68 nM. On the same count and under the same terms, then 145-dsDNA, with 350 nM. The same measure, in the same setting: then 145-nucleosome, with 67 nM.

On to 145-tailless nucleosome, for which the equilibrium dissociation constant (Kd) in data set [1] (tailless histones: H4 del1-20, H3 del1-37, H2A del1-15, H2B del1-31) was 79 nM.

185-dsDNA: the equilibrium dissociation constant (Kd) in data set [1] amounted to 394 nM. As to 185-nucleosome, the equilibrium dissociation constant (Kd) in data set [1] worked out at 172 nM. In data set [1], Oligonucleosomes registered a Kd of 66 nM.

On to “human cGAS (cGMP-AMP synthase) (from UniProt Q8N884 1-522) (enzyme)”, for which the Kd in data set [2] was found to be 172 nM; in data set [3], 66 nM; in data set [4], 67 nM. Further, the amount of cGAMP after 3 h incubation with cGAS, ATP and GTP (UPLC-MS/MS), against that induced by dsDNA (% of that induced by dsDNA) in data set [5] and in data set [6] was 15 in each case. Also, the initial velocity of cGAMP generation in vitro (UPLC-MS/MS; 2 uM cGAS, ATP, GTP, 37 °C), against that induced by 145-dsDNA (ratio to 145-dsDNA) in data set [6] is 0.1.

The Kd is the constant that tells how readily two partners part at equilibrium.
